Our source for the binding values is PMC12482432.

In data set [1] the test system is T1, EefR (Escherichia coli ATCC 35218 (35218m, acrB-deficient)), ORF:f1625a7f.
T1 sequence: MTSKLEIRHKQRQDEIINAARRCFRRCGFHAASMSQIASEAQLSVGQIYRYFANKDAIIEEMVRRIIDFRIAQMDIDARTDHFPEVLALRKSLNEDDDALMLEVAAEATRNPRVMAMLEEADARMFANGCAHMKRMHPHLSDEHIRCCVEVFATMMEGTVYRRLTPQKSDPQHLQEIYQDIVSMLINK
As to the kind of experiment: competition. Particulars: EMSA in binding buffer (Beyotime kit, composition not given), 25 °C, 20 min; 6% native PAGE at 4 °C; salt and pH not stated. For orientation: Mobility shift assays separate free from complexed probe on a gel.

Data set [2] has the same test system. In words: EMSA. Particulars: EMSA in binding buffer (Beyotime kit, composition not given), 25 °C, 20 min; 6% native PAGE at 4 °C; salt and pH not stated.

Turning to “CACAATCTCTTCATTATCAGAATATGCACCATGAATAAGATAAAAATACTTTCCATTACTTTGGAGAAACGTATAATCAGCAAAAATGAGAACGATCATTCTCACCAAGTGATAGGCCAGGAGACAGAA (double strand) [P1 cold probe]”, the binding entry in data set [1] is recorded as “binds”.
With “CACAATCTCTTCATTATCAGAATATGCACCATGAATAAGATAAAAATACTTTCCATTACTTTGGAGAAACGTATAATCAGCAAAAATGAGAACGATCATCCTCACCAAGTGATAGGCCAGGAGACAGAA (double strand) [M1 (one base mutated, MT-1)]”, in data set [2], the binding result was “no binding”.
Regarding “ACAGAATTAACCAATAGCGGGGGATATTAATCCCCCTTATTTCATTGCGAAATTCATTTCGCGATGCGGGTTCGTTATAACTGAATATCCCTGACATATCCTCATTAATTTTAATGAGGAGGGTATTTCTCACCCTGGAGAAAATA (double strand) [nonspecific probe (148 bp)]”, the binding result in data set [1] was “no binding”.
As for “CACAATCTCTTCATTATCAGAATATGCACCATGAATAAGATAAAAATACTTTCCATTACTTTGGAGAAACGTATAATCAGCAAAAATGAGAACGATCATTCTCACCAAGTGATAGGCCAGGAGACAGAA (double strand) [P1 (129 bp eefR upstream probe)]”, the binding result in data set [2] was “binds”.
